Source: patent publication US11254745 (CROWN BIOSCIENCE, dated 2022)

What was measured:
[1] = molecular target: T1, human CD4 on 293T cells stably expressing CD4 (CD4-293T) (human, UniProt P01730 26-458); test: FACS on 293T cells expressing human CD4, MFI; table under the graph (unit from the graph's axis); Table 6 of the text gives this value to MT412
T1 construct: whole, on cells; also called 293T-CD4 cells; hCD4 (FACS)
Procedure: (§1) Cell binding analysis of anti-CD4 antibody was performed using 293T cell line stably expressing CD4 (CD4-293T). 2*10^5 CD4-293T cells were added to each well of 96-well plate and incubated with the indicated hybridoma supernatant or a serial concentrations of purified antibody (starting from 20 μg/mL) at 4° C. for 1 h. After the cells were washed three times with FACS buffer, the secondary antibody (PE Goat anti-mouse: 1:200) was added to the cells at 100 μl/well, and incubated at 4° C. for 40 min. Cells were washed three times with FACS buffer and analyzed by FACS Array. The binding EC50 of purified antibody was calculated with GraphPad Prism 5.
(§2) Freestyle 293 cells (200 mL at 1*10^6/mL) were transfected with 100 µg of each of the chimeric heavy and light chain expression plasmids and cultured for 6 days at 37° C. The chimeric antibody in the supernatant was then purified with Protein-A column (GE healthcare). Binding of the chimeric antibody with CD4 was measured by ELISA (FIG. 3, Table 5) and FACS (FIG. 4, Table 6), using the similar methods described above in Example 2.

[2] = molecular target: T1, human CD4 on 293T cells stably …; test: FACS, chimeric antibody on CD4-293T cells
Procedure: as §1, §2

[3] = molecular target: T2, extracellular domain of hCD4 fused with human Fc tag (hCD4-hFc) (human, UniProt P01730 26-396); test: ELISA, chimeric antibody on hCD4, method similar to Example 2
T2 construct: extracellular domain; also called human CD4-hFc; hCD4 (ELISA); not shown: human Fc tag
Procedure: (§3) Example 2: Selection of the Anti-hCD4 Hybridoma Antibodies Based on Binding and Gene Reporter Assays The binding interaction between hybridoma antibody and human CD4-hFc was measured by ELISA. 96-well plates (Costar, Cat. No:9018) were coated with 100 μL of 2 μg/ml CD4-hFc (CrownBio) in PBS buffer (Hyclone, Cat. No: SH30256.01B) overnight at 4° C. The wells were aspirated and non-specific binding sites were blocked by adding 200 μL of blocking buffer containing 1% (w/v) of bovine serum albumin (BSA, Roche, Cat. No: 738328) and incubating for 1 hour at 37° C. After the plates are washed three times with PBS buffer containing 0.05% (v/v) Tween™ 20 (Sigma, Cat. No: P1379), 100 μL hybridoma supernatant or a serial concentrations of purified antibody (starting from 20 μg/mL) diluted in blocking buffer was added to each well and incubated at room temperature for 1 hour. The plates were washed and incubated with 100 μL/well of Goat anti-Mouse IgG (Thermo, Cat. No:31432) in blocking buffer for 60 min. After the plates were washed, 100 μL/well of substrate solution TMB (eBioscience, Cat. No:00-4201-56) was added, and the plates were incubated for 2 min at room temperature before 100 μL/well of 2N H_2SO_4 was added to stop the reaction. The colorimetric signals were monitored at 450 nm using a SpectraMax Plus microplate reader (Molecular Devices). For the purified antibody, data were analyzed using GraphPad Prism 5 to calculated the $EC50$.
as §2

[4] = molecular target: T3, extracellular domain of hCD4 fused with a histidine tag (hCD4-HisTag) (human, UniProt P01730 26-396); test: Biacore T200 SPR, antibody captured on Protein A, CD4-HisTag analyte, 1:1 fit, 25 C
T3 construct: extracellular domain; also called human CD4-HisTag; not shown: histidine tag
Procedure: The binding kinetics between CD4 and CD4 antibodies were measured by Biacore™ analysis, which was performed at 25° C. on a Biacore™ T200 instrument. Protein A (GE, Cat. No:29139131-AA) was diluted with 10 mM pH 5.0 sodium acetate and immobilized onto reference and experiment flow cells of a CM5 biosensor chip to around 15000 RU using an amine coupling kit (GE, BR10050). In the beginning of each cycle, diluted test antibody (1.5 µg/mL) was injected over experiment flow cell for 1 minute to be captured. CD4-HisTag analyte series were prepared by diluting the stocks with running buffer to 100 nM followed by 2-fold serial dilution in the same buffer down to 0.78 nM. Analytes were injected in series over the reference and experiment flow cells for 3 minutes at a flow rate of 30
μL/minute. Running buffer (PBS with 0.05% P20) was allowed to flow over for 10 minutes at a flow rate of 30 μL/minute. At the end of each cycle, the biosensor surface was regenerated with 3-minute injection of 10 mM pH 2.0 Glycine-HCl buffer at a flow rate of 10 μL/minute. For each analyte sample injection (i.e., each cycle), binding responses obtained from the experimental biosensor surface were double referenced by subtracting simultaneously recorded responses from the reference surface followed by additional subtraction of responses from a single referenced running buffer sample. The association and dissociation rate constants (ka and kd) were determined simultaneously by fitting double-referenced sensorgrams of the entire titration series to Langmuir model (1:1) using Biaevaluation software. The dissociation constant, KD, was calculated from the determined rate constants by the equation KD=kd/ka.

[5] = molecular target: T1, human CD4 on 293T cells stably …; test: FACS on 293T cells expressing human CD4, MFI; table under the graph (unit from the graph's axis); Table 8 of the text gives this value to 29B7
Procedure: as §1
(§4) DNA encoding humanized 2B6, 29B7 and MT412 antibody light chain and heavy chain was synthesized and cloned to the expression vector pcDNA3.1 (Invitrogen, Cat. No: V-790). Freestyle 293 cells (200 mL at 10^6/mL) were transfected with 100 µg of each of the humanized heavy and light chain expression plasmids and cultured for 6 days at 37° C. The humanized antibody in the supernatant was then purified with Protein-A column (GE healthcare). Binding of the chimeric antibody with CD4 was measured by ELISA (FIG. 6, Table 7) and FACS (FIG. 7, Table 8), and the methods used were similar to those described above in Example 2.

[6] = molecular target: T1, human CD4 on 293T cells stably …; test: FACS, humanized antibody on CD4-293T cells
Procedure: as §1, §4

[7] = molecular target: T2, extracellular domain of hCD4 fused with …; test: ELISA, humanized antibody on hCD4, method similar to Example 2
Procedure: as §3, §4

[8] = molecular target: T2, extracellular domain of hCD4 fused with …; test: ELISA on human CD4, OD450; table under the graph (unit from the graph's axis); Table 7 of the text gives this value to 29B7
Procedure: (§5) Example 2: Selection of the Anti-hCD4 Hybridoma Antibodies Based on Binding and Gene Reporter Assays The binding interaction between hybridoma antibody and human CD4-hFc was measured by ELISA. 96-well plates (Costar, Cat. No:9018) were coated with 100 μL of 2 μg/ml CD4-hFc (CrownBio) in PBS buffer (Hyclone, Cat. No: SH30256.01B) overnight at 4° C. The wells were aspirated and non-specific binding sites were blocked by adding 200 μL of blocking buffer containing 1% (w/v) of bovine serum albumin (BSA, Roche, Cat. No: 738328) and incubating for 1 hour at 37° C. […] The colorimetric signals were monitored at 450 nm using a SpectraMax Plus microplate reader (Molecular Devices). For the purified antibody, data were analyzed using GraphPad Prism 5 to calculated the $EC50$.
(§6) DNA encoding humanized 2B6, 29B7 and MT412 antibody light chain and heavy chain was synthesized and cloned to the expression vector pcDNA3.1 (Invitrogen, Cat. No: V-790). […] Binding of the chimeric antibody with CD4 was measured by ELISA (FIG. 6, Table 7) and FACS (FIG. 7, Table 8), and the methods used were similar to those described above in Example 2.

[9] = molecular target: T2, extracellular domain of hCD4 fused with …; test: ELISA on human CD4, OD450; table under the graph (unit from the graph's axis); Table 7 of the text gives this value to MT412
Procedure: as §5, §6

[10] = molecular target: T1, human CD4 on 293T cells stably …; test: FACS on 293T cells expressing human CD4, MFI; table under the graph (unit from the graph's axis); Table 8 of the text gives this value to MT412
Procedure: as §1, §4

[11] = molecular target: T2, extracellular domain of hCD4 fused with …; test: ELISA on human CD4, OD450; table under the graph (unit from the graph's axis); Table 7 of the text gives this value to 2B6
Procedure: as §5, §6

[12] = molecular target: T1, human CD4 on 293T cells stably …; test: FACS on 293T cells expressing human CD4, MFI; table under the graph (unit from the graph's axis); Table 8 of the text gives this value to 2B6
Procedure: as §1, §4

B1: Chimeric 29B7 anti-CD4 antibody (antibody, human IgG1, kappa, V domains shown)
VH: QVQLQQSGAELAKPGASVKMSCKTSADSLNTHWMHWVKQRPGQGLEWIGYINPYTGSGEYSQKFKGKATLTADISSSTAYMQLISLTSEDSAVYYCAYDSTGAMDYWGQGTSVTVSS
VL: DIKMTQSPSSMYASLGERITITCKASQDINRYLSWFQQKPGKSPKTPIYRADRSVDGVPSRFSGSGSGQDYSLTISSLEYEDMGIYYCQQYDEFPYTFGGGTKLEIKR
[1]
  EC50: 0.515 µg/mL
[2]
  EC50: 0.401 µg/mL
[3]
  EC50: 0.0243 µg/mL
[4]
  Kd: 0.0843 nM
  koff: 5.98e-05 s⁻¹
  kon: 709000 M⁻¹ s⁻¹

B2: 2B6 humanized anti-CD4 antibody (antibody, V domains shown)
VH: QVQLQESGPGLVKPSETLSLTCTVSGDSITSGYWNWIRQPPGKGLEFLGYISFADTTNYNPSLKSRVTISRDTSKNQFSLKLSSVTAADTAVYYCARDDYGYYAMDYWGQGTLVTVSS
VL: DIQLTQSPSSLSASVGDRVTITCRASQDIDNYLNWYQQKPGKAPKLLIYYTSRLHSGVPSRFSGSGSGTDYTLTISSLQPEDFATYYCQQGNTLPTFGQGTKLEIK
notes: Expressed as heavy and light chains in Freestyle 293 cells; also called Humanized 2B6
[5]
  EC50: 0.182 µg/mL
[6]
  EC50: 0.211 µg/mL
[4]
  Kd: 0.152 nM
  koff: 7.89e-05 s⁻¹
  kon: 520000 M⁻¹ s⁻¹
[7]
  EC50: 0.0116 µg/mL
[8]
  EC50: 5.6 ng/mL

B3: 29B7 humanized anti-CD4 antibody (antibody, V domains shown)
VH: QVQLVQSGAEVKKPGASVKVSCKASGDSLNTHWMHWVRQAPGQRLEWIGYINPYTGSGEYSQKFKGRATLTADISASTAYMELSSLRSEDTAVYYCAYDSTGAMDYWGQGTLVTVSS
VL: DIQMTQSPSSLSASVGDRVTITCKASQDINRYLSWFQQKPGKAPKTPIYRADRSVDGVPSRFSGSGSGQDYTLTISSLQPEDFATYYCQQYDEFPYTFGQGTKLEIK
notes: Expressed as heavy and light chains in Freestyle 293 cells; The description says only that humanized antibodies may have human IgG1 and human kappa constant regions; also called Humanized 29B7
[6]
  EC50: 0.182 µg/mL
[9]
  EC50: 0.0116 µg/mL
[4]
  Kd: 0.444 nM
  koff: 0.000457 s⁻¹
  kon: 1.03e+06 M⁻¹ s⁻¹
[7]
  EC50: 0.0056 µg/mL
[10]
  EC50: 0.183 µg/mL

B4: MT412 humanized anti-CD4 antibody (antibody, V domains shown)
VH: QIQLVQSGSELKKPGASVKVSCKASGYTFTDYSMHWVRQAPGQGLEWMGWINTETGEPTYADDFKGRFVFSLDTSVSTAYLQISSLKAEDTAVYYCAREDYYGHDGFLYWGQGTLVTVSS
VL: DIQMTQSPSFLSASVGDRVTITCKASQDVVTTVAWYQQKPGKAPKLLIYWASLRHTGVPSRFSGSGSGTEFTLTISSLQPEDFATYFCQQYSSYPYTFGQGTKLEIKR
notes: Expressed as heavy and light chains in Freestyle 293 cells; The description says only that humanized antibodies may have human IgG1 and human kappa constant regions; also called Humanized MT412
[11]
  EC50: 0.0116 µg/mL
[6]
  EC50: 0.183 µg/mL
[4]
  Kd: 1.8 nM
  koff: 0.00199 s⁻¹
  kon: 1.11e+06 M⁻¹ s⁻¹
[7]
  EC50: 0.0116 µg/mL
[12]
  EC50: 0.211 µg/mL
